Measurements: IntAct's records for PubMed 35512704

B1: Speckle-type POZ protein (Homo sapiens), O43791 (parent)
chain: MSRVPSPPPPAEMSSGPVAESWCYTQIKVVKFSYMWTINNFSFCREEMGEVIKSSTFSSGANDKLKWCLRVNPKGLDEESKDYLSLYLLLVSCPKSEVRAKFKFSILNAKGEETKAMESQRAYRFVQGKDWGFKKFIRRDFLLDEANGLLPDDKLTLFCEVSVVQDSVNISGQNTMNMVKVPECRLADELGGLWENSRFTDCCLCVAGQEFQAHKAILAARSPVFSAMFEHEMEESKKNRVEINDVEPEVFKEMMCFIYTGKAPNLDKMADDLLAAADKYALERLKVMCEDALCSNLSVENAAEILILADLHSADQLKTQAVDFINYHASDVLETSGWKSMVVSHPHLVAEAYRSLASAQCPFLGPPRKRLKQS
partner: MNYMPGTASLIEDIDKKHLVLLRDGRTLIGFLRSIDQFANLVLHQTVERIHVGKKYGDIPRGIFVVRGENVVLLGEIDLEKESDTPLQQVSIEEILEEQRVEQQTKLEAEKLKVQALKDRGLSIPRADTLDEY
B2: Speckle-type POZ protein (Homo sapiens), O43791 (parent)
chain: B1 chain
partner: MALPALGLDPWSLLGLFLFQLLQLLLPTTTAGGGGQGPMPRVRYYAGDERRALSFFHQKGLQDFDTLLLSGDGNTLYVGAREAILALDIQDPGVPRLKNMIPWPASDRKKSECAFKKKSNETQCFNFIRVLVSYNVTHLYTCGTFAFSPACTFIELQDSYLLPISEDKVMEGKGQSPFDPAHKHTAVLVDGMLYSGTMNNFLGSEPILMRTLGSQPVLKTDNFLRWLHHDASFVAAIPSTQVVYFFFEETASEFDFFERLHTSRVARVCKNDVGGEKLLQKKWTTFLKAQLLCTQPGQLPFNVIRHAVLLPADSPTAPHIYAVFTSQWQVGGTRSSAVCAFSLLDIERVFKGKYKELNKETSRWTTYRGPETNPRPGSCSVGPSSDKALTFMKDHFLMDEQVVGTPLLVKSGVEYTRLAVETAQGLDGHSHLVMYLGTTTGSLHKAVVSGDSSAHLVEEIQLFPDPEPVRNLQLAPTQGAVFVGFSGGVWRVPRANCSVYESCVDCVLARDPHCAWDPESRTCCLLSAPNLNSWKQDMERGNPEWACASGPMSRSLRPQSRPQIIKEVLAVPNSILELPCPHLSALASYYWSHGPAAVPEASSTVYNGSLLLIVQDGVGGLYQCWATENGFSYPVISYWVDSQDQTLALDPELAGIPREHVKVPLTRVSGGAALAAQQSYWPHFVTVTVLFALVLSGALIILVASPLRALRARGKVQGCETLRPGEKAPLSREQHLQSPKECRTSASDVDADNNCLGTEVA
B3: Speckle-type POZ protein (Homo sapiens), O43791 (parent)
chain: B1 chain
partner: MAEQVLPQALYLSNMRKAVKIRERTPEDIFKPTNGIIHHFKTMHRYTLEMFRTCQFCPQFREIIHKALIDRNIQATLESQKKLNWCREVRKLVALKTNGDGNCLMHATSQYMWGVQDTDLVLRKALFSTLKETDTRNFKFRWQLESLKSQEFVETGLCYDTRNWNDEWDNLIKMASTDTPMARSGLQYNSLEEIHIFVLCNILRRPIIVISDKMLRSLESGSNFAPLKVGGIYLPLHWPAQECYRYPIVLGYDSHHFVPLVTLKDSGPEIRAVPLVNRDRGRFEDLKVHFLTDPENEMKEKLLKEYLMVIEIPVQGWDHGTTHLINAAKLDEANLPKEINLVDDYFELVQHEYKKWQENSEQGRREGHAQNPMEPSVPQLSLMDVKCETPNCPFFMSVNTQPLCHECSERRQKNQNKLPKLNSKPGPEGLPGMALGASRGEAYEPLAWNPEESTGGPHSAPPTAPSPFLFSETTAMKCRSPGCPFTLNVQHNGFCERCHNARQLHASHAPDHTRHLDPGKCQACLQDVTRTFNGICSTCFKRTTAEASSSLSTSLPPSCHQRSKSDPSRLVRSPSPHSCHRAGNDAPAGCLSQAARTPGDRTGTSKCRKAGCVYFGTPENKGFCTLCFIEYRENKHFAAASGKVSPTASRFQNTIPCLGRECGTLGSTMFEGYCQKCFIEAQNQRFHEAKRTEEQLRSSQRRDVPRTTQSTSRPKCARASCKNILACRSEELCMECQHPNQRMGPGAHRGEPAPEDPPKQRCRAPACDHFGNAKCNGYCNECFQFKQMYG
B4: Speckle-type POZ protein (Homo sapiens), O43791 (parent)
chain: B1 chain
partner: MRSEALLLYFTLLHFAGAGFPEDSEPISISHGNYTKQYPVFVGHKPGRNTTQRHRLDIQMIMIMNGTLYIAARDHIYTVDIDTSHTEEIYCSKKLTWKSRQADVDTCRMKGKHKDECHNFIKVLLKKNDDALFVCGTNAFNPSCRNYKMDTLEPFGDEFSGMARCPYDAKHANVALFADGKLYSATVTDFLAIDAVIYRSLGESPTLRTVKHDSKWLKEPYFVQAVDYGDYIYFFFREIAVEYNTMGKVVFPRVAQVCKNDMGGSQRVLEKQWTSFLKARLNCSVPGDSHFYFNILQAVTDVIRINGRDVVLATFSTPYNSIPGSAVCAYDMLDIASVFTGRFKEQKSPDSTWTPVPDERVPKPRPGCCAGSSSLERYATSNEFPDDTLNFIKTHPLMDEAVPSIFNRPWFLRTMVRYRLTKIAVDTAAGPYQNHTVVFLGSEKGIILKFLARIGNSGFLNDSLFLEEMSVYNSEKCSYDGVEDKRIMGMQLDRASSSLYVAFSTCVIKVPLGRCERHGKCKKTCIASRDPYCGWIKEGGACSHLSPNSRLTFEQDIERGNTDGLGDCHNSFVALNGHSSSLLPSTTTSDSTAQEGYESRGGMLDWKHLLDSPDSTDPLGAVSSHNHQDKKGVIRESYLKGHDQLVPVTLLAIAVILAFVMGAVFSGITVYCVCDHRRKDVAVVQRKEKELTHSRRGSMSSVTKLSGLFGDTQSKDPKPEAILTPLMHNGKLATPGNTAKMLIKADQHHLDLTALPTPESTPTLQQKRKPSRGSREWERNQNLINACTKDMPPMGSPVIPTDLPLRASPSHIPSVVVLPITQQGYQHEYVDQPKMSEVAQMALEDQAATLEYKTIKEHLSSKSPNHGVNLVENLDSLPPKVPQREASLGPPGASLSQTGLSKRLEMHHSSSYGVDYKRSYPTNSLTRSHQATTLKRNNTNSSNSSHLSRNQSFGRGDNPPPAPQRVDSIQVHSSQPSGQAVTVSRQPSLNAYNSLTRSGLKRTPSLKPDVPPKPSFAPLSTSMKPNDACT
B5: Speckle-type POZ protein (Homo sapiens), O43791 (parent)
chain: B1 chain
partner: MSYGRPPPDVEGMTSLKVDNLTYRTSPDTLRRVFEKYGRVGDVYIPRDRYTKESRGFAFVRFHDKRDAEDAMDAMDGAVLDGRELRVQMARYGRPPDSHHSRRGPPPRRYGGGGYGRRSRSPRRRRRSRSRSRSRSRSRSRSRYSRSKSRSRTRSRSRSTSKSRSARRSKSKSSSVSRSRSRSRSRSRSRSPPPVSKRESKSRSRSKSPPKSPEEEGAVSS
B6: Speckle-type POZ protein (Homo sapiens), O43791 (parent)
chain: B1 chain
partner: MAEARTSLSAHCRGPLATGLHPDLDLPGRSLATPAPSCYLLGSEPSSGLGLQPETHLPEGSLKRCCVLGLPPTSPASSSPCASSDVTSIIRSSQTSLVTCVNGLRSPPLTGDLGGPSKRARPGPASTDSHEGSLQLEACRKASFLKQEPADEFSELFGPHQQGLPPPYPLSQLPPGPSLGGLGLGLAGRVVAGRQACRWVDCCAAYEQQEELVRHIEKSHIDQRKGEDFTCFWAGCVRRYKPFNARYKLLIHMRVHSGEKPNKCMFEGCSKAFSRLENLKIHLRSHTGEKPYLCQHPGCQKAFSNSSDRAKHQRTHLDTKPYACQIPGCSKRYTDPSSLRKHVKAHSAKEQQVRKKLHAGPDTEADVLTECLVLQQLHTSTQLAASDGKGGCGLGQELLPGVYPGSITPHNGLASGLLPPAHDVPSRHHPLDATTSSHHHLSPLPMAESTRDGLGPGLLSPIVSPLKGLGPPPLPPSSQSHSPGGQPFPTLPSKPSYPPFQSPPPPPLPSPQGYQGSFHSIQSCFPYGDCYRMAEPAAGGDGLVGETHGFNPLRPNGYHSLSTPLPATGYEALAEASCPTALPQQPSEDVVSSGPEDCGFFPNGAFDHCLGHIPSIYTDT
B7: Speckle-type POZ protein (Homo sapiens), O43791 (parent)
chain: B1 chain
partner: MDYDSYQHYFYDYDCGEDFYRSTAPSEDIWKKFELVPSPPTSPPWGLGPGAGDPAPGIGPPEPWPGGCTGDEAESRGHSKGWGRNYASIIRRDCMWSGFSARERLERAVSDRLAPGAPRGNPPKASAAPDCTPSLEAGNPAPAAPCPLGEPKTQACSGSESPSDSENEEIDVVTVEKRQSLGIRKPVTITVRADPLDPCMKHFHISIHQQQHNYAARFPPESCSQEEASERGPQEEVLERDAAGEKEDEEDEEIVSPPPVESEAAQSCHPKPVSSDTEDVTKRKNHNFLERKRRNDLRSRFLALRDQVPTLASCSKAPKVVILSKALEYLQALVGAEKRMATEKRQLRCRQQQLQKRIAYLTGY

Variants of: B1
Conditions: with lsm1_human LSM1, O15116

Variant | effect of a mutation on the interaction
F133L | with no effect

Variants of: B2
Conditions: with sem4a_human SEMA4A

Variant | effect of a mutation on the interaction
F102C | with no effect

Variants of: B2
Conditions: with sem4a_human SEMA4A
Remark: another data set of the same source

Variant | effect of a mutation on the interaction
F133V | with no effect

Variants of: B2
Conditions: with sem4a_human SEMA4A
Remark: another data set of the same source

Variant | effect of a mutation on the interaction
F133L | with no effect

Variants of: B2
Conditions: with sem4a_human SEMA4A
Remark: another data set of the same source

Variant | effect of a mutation on the interaction
Y87C | with no effect

Variants of: B3
Conditions: with tnap3_human TNFAIP3, P21580

Variant | effect of a mutation on the interaction
F133L | with no effect

Variants of: B3
Conditions: with tnap3_human TNFAIP3, P21580
Remark: another data set of the same source

Variant | effect of a mutation on the interaction
Y87C | with no effect

Variants of: B4
Conditions: with sem6a_human SEMA6A

Variant | effect of a mutation on the interaction
F133V | with no effect

Variants of: B4
Conditions: with sem6a_human SEMA6A
Remark: another data set of the same source

Variant | effect of a mutation on the interaction
F133L | with no effect

Variants of: B4
Conditions: with sem6a_human SEMA6A
Remark: another data set of the same source

Variant | effect of a mutation on the interaction
F102C | with no effect

Variants of: B4
Conditions: with sem6a_human SEMA6A
Remark: another data set of the same source

Variant | effect of a mutation on the interaction
Y87C | with no effect

Variants of: B5
Conditions: with srsf2_human SRSF2, Q01130

Variant | effect of a mutation on the interaction
Y87C | with no effect

Variants of: B5
Conditions: with srsf2_human SRSF2, Q01130
Remark: another data set of the same source

Variant | effect of a mutation on the interaction
F102C | with no effect

Variants of: B5
Conditions: with srsf2_human SRSF2, Q01130
Remark: another data set of the same source

Variant | effect of a mutation on the interaction
F133V | with no effect

Variants of: B5
Conditions: with srsf2_human SRSF2, Q01130
Remark: another data set of the same source

Variant | effect of a mutation on the interaction
F133L | with no effect

Variants of: B6
Conditions: with glis1_human GLIS1, Q8NBF1

Variant | effect of a mutation on the interaction
Y87C | with no effect

Variants of: B6
Conditions: with glis1_human GLIS1, Q8NBF1
Remark: another data set of the same source

Variant | effect of a mutation on the interaction
F133L | with no effect

Variants of: B7
Conditions: with mycl_human MYCL

Variant | effect of a mutation on the interaction
Y87C | with no effect
